Data from the nanobody polyreactivity screen of Harvey et al. (2022).

Test: yeast display, Sf9 membrane polyspecificity reagent, FACS + sequencing; frameworks hold sequencing errors
Outline: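 Polyreactivity labels are assigned by the sorting gate from which each nanobody was recovered. The gates were low and high (top ~1%), set on anti-HA fluorescence for expression and streptavidin fluorescence for reagent binding. Before sorting, galactose-induced (36–48 hours) yeast display cells were stained for 1 hour at 4 °C with 10% biotinylated, detergent-solubilized Sf9 membrane reagent.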

Row | Sequence | polyreactivity (PSR sort gate)
1 | QVQLVESGGGLVQAGCSLRLSCAASGRIFTSYAMGWYRQAPGKERELVAAISRSGARTYYADTVKGRFTISRDNAKNTVYLQMNSLKPEDTAVYDCAAVTVAGYDYWGQGTQVTVSS | high polyreactivity
2 | QVQLVESGGGLVQAGGSLRLSCAASGSIFWYYVMGWYRPAPGKERELVAAISNVSTYYADSVKGRFTISRDNAKNTVYLQMNSLKPEDTAVYYCAARGLLWYYSWRYYYWGQGTQVTVSS | low polyreactivity
3 | QVQLVESCGGLVQAGGSLRLSCAASRLIFGYYAMGWYRQAPVKERELVASISSGGRTYYADSVKGRFTISRDNAKNTVNLQMNSLKPEDTAVYYCNAVKGWFVYEYDYWGQGTQVTVSS | low polyreactivity
4 | QVQLVESGGGLVQAGGRLRLICAASGSTFVTNYMGWYRQAPGKERELVAAISSGTSTNYADSVKGRFTISRDNAKNSVYLPMNSLTPEDTAVYYCAADSLKRYDYWGQGTQVTVSS | low polyreactivity
5 | QVQLVESGGGLVQAGGSLRLSCAASGSIFWYYGMGWYRPAPAKERELVAAISSGGSTNYADSVKGRFAISRDNAKNTVYIQMNSLKPEDTAVYYCAVRFTFPRYPASYSRYYYWGQGTQVTVSS | high polyreactivity
6 | QVQLVESGGGLVQAGASLRLSCASSGFTFGYYTMGWYRQAPGKERELVAAISWSGDSTYYADSVKGRLTISRDNAKNTVYLQMNSLKPEDTAVYYCAAEVYGSWPDYDYSGQGTQVTVSS | low polyreactivity
7 | QVQLVESGGGLVQAGGSLRLSCAASGRTLRWYAMGWYRQAPGKERELVAAINWSGTSTYYADSVKGRFTISRDNAKNTVYLQMNSLKPEDTAVYYCAKRVTWNYDWGQGTQVTVSS | high polyreactivity
8 | QVQLVESGGGLVQAGGSLRFSCAASGFTFVYYVMGWYRQAPGKERELVAAINAGGGSTYYADSVKGRFTISRDNAKNTVYLQMNSLKPEDTAVYYCNARVRLGRNWSSYYYWGQGTQVTVSS | high polyreactivity
9 | QVQLVESGGGLVQAGGSLRLSCAASGRIFFYYAMGWYRQAPGKERELVAAINRGGRTYYADSVKGRFTISRDNAKNTVYLQMNSLKPEDTAVYYCAADGQTAKSNFDYWGQGTQVTVSS | low polyreactivity
10 | QVQLVESGGGLVQAGGSLRLSCAASGSTFNIYAMGCYRQSPGKERELVAAIRSGGSTYYADSVKGRFTISRDNAKNTVYLQMNSLKPEDTAVYYCGAAVKRALDYWGQGTQVTVSS | high polyreactivity
11 | QVQLVESGGGLVQAGCSLRLSCAASGRIFGQYAMGWYRQAPGKEREFVAGISTTGGSTYYADSVKGRFTISRDNAKNTVYLQMNSLKPEDTAVYYFAVRINWSRWYHYYTYNYWGQGTQVTVSS | high polyreactivity
12 | QVQLVESGGGLVQAGGSLRLSCAASGRIFSYKAMGWYRQAPGKERELVAAISFSTTSTYYADSVKGRFTISRDNAKNTVYLQMYSLKPEDTAVYYCNTPGLPIDSEYDYWGQGTQVTVSS | low polyreactivity
13 | QVQLVESGGGLVQAGGSLRLSCAASGSTFYTYTMGWYRQAPGKERALVAAISSSGGDTYYADSVKGRFTISRDNAKNTVYLQMNSLKPEDTAVYYCAALGAFPSLEFDYWGQGTQVTVSS | low polyreactivity
14 | QVQFVESGGGLVQAGGSLRLSCAASGSTFQGYAMGWYRQAPGKERELVAAISRSGGRTYYADSVKGRFTISRDNAKNTVYLQMNSLKPEDTAVYYCAAEGHELTEGDSWGQGTQVTVSS | low polyreactivity
15 | QVQLVESGGGLVQAGGSLRLSCAASGITFISYAMGWYRQAPGKERELVAVISKSGGRTYYADSVKGRFTISRDNAKNTVYLQMNSLKPEDTAVYYCAATKRYASGMYYWGQGTQVTVSS | high polyreactivity
16 | QVQLVESGGGLVQAGGSLRLSCAASGRTFKYNAMGWYRQAPGKERELVAAISNRGGSTYYADSVKGRFTISRDNAKNTVYLQMNSLKPEDTAVYYCAVRAVYRWSSGYGYWGQGTQVTVSS | high polyreactivity
17 | QVQHVESGGGLVQAGGSLRLSCAASVSIFEYYAMGWDRRAHGKERELVARITDSGGSTYADSVKGRFTISRDNAKNTVYLQMSSLKPEDTAVYYCAADDNYFDFDYWGQGTQVTVSS | low polyreactivity
18 | QVQLVESGGGLVQAGGSHRLSCAASGRIFGTYTMGWYRHAPGKERELVASIRFGGSTYYADSVKGRYTISRDNAKNTVYLQMNSLKPEDTAVYYCNRVYGYNRRYGYWGQGTQVTVSS | high polyreactivity
19 | QVQLVESGGGLVQAGGSLRLSCAASGRTFGYNAMGWYRHAPGKERELVAAISSSGGSTYYADSVKGRFTISRDNAKNTVYLQMNSLKPEDTEVYYCATQGYSWAHGSDYWGQGTQVTVSS | low polyreactivity
20 | QDQLVESGGGLVQAGGSLRLSCAASGSIFRYYAMGWYIQAPGKEREFVASITYRGGRTYYADSVKGRFTISRDNAKNTFFLQMNSLKPEDTAVYYCAARTRAGAWTSKYHDYWGQGTQVNVSS | high polyreactivity
21 | QVHLVESGGGLVQAGGSLRLSCAASGSTIYYNAMGWYRQAPGKERELVAAISKSSSRTYYADSVKGRFTISRDNAKNTVYLQMNSLKTEDTAVYFCAADAVYFHFDYWGQGTQVTVSS | high polyreactivity
22 | QVQLVESGGGLVQAGGSLRLSCAASGFIFYRYAMGWYRQQPGKERELVAAISSRGGTTYYADSVKWRFTISRDNAKNTVYLQMNSLKPEDTAVYYCAADRGYKMGYWLQGTQVTVSS | high polyreactivity

Row | Sequence | polyreactivity (PSR sort gate)
23 | QVQLVESGGRLVQAGGSLRLSCAASGSTFIQNAMGWSRQAPGKDRELVAAITSGGGTNYADSVKGRFTISRDNAKNTVYLQMNSLKPEDTAVYYCAAEPFNYDDFWFGWEYLYDYWGQATQVTVSS | low polyreactivity
24 | QVQLVESGGGLVQAGGSLRLSCAASGRIFAVNAMGWYRQAHGKERELVASISRRGGTTNYADSVKGRFTISRDNAKNTVYLKMNSLIPEDTAVYYCATRGSAWGRSYNYWGQGTQVTLSS | high polyreactivity
25 | QVQLVESGGGLVQAGGSLRLSCAASGRIFKRYVMGWYRKAPGKERELVAAITWRGGTYYADSVKGRFTISRDNAKNTVYLQMNSLKPEDTAVYYCAADTYFSGAGGQAYQYDYWGLGTQVTVSS | high polyreactivity
26 | QVHLVESGGGLVQAGGSLRLSCAASGFIFYLYAMGWYRQAPGKERELVASITSSGRTNYADSVKGRFTISRDNAKNTVYLQMNSLKPEDTAVYYCNKRYSKGDEYYYWGQGTQVTVSS | high polyreactivity
27 | QVQLVESGGGLVQAGGSLRLSCAASGSTFGRYAMGWYRQAPGKERELFAAISWSGGSTYYADSVKGRFTISRDNAKNTVYLQMNSLKPEDTAVYYCNKAGIYIYGSYYWGQGTQVTVSS | high polyreactivity
28 | QVQLVESGGGLVQAGGSLRLSCAASGITFFAYAMGWYRQAPGKERELVAAIWRGDNTYYADSVKGRFTISRDNAKNTVYLQMNSLKPEDTAVYYCAARYWSRRIFREGYWGQGTQVTVSS | high polyreactivity
29 | QVKLVESGGGLVQAGGSLRLSCAASGFIFRGYAMGWYRQAPGKERELVAAINYSGGSTYYADSVKGRFTISRDYAKNTVYLQMNSAKPEYTAVYYCNALGLRYYEYDYWGQGTQVNVSS | low polyreactivity
30 | QVQLVESGGGLVQAGGSLRLSCAASGSIFSSYAMGWYRQAPGKERELVAAIDGSGGSTYADSVKGRFTISRDNAKITVYLQMNRLKPEDTAVYYCAVDSFLVYSAVRPYDYWGLGTQVTVSS | low polyreactivity
31 | QVQHEESGGGLVQAGGSLRLSCAASGYTFSFYAMGWSRQAPGKERELVAAISSSDGTTYYADSVKGRFTISRDNAKNTVYLQMNSLKPQDTAVYYCNTRYVRQVVGTYTLKTRYYWGQGTQVTVSS | high polyreactivity
32 | QDQLGESGGGLVQAGGSLRLSCAASGLTFYFYAMGWYRPAPGKEREFVATISFSGGSTYYADSVKGRFTISRDNAKNTVYIQMNSLKPEDTAVYYCNAESDYYWYPYNYWGQGTQVTVSS | low polyreactivity
33 | QVQLVESAGGLVQAGGSLRLSCAASGYIFQYYAMGWYRQAPGKERELVAAITSGGSTYYADSVKGRFTISRDNAKNTVYLQMNSLKPEDTAVYYCAAHLLHYRGDYWGQGTQVTVSS | high polyreactivity
34 | QVQLVESGGGLVQAGGSLRLRCAASGSTFSEYAMGWYRQAPGKERELVAAISYNGGSTYYADSVKGRFTISRDNAKNTVYLQMNSLKPEDTAVYYCNAKLFYDRYDYWGQGTQVTVSS | low polyreactivity
35 | QVQLVESGGGLVQAGGSLRKSCAASRGILETNAIGWYRQAPGKERELVAAIDFSAGSTYYADSVKGRFTISRDNAKNTVYLQMNSLKPEDTAVYYCATRLGVLYDYWGHGTQVTVSS | low polyreactivity
36 | QVQLQGSGGGLAQAGDSLRLSCAASGTIFSEYNNGLVSPGAGQRTRTCCRYWCWGNTYYADSAKRRFTTSRDNAKNTLYLQKNSLKPEDTAVYYCAFNRPYPSRHIYRGQGTQVTVSS | high polyreactivity
37 | QVQLVESGGGLVQAGGSLRLSCAASGRTFVLNVMGWYRQAPGKERELVADITSGDNTYYADSVKGRFTISRDNAKNTVYLQRNSLKPEDTAVYYCAADGWFYFGYDYWGQGTQVTVSS | low polyreactivity
38 | QVQLVESGGGLVQAGGSLRLSCTASGSIFVTNAMGWYRQAPGKERELVAAITWGGGNTTYADSVKGRFTISRDNAKNTVDLQMNSLKPEDTAVYYCAKDPYVNRDYWGQGTQVTVSS | low polyreactivity
39 | QVQLVESGGGLVQAAGSLRLSCATSGFTFVSNAMGRYRQPHGKQRELVAAITKRRSGSTYYADSVKGRFTISRDNAKNTVYLQMNSLKPEDTAVYYCDRVPDTDGEYWGQGTQVTVSS | high polyreactivity
40 | QVQLVESGGGLVQAGGSLRLSCAASGSIFGDNAMGWYRQAPGKERELVAAITTGASRTYYADSVKGRFTISRDNAKNTVYLQMNSLKPEDTAVYYCNASDPSWREYDYWGQGTQVIVSS | low polyreactivity
41 | QVQLVESGGGLVQAGGSLRLSCAASGITSQTYAMGWYRQAPGKERELVAGISASGGRTFYADSVKGRFTFSRDHAKNTVYLQMNSLKPEDTAVYYCNKLSSDSYNYWGQGTQVTVSS | high polyreactivity
42 | QVQLVESGGGLVQARGSLRLSCAASGLTFITNTMGWYRQAPGKERELVAVISYSGTSTYYADSVKGRFTISRDYAKNTVYLQMNSLKPEDTAVYYWDASYLGSYRYSYYYWGQGTQVTVSS | high polyreactivity
43 | QVQLVESGGGLVQAGGSIRSSCAASGRTFGSNAMGWSRQAPGKERELVAAISSTVSTNYADSVKGRFTISRDNAKNTVYLQMNSLKPEDTAVYYCNVTRHYSYVSEYDYWGQGTQVTVSS | low polyreactivity
